Non-standard residues stand in square brackets, D forms with d. No end group written: not given here. pT = C[C@@H](OP(=O)(O)O)[C@H](N)C(=O)O; pS = N[C@@H](COP(=O)(O)O)C(=O)O
Target: full-length human PNK (human, UniProt Q96T60 1-521)
Assay: ITC

Row | stoichiometry N | Binder
1 | 0.49 | YAG[pS][pT]DEN[pT]D[pS]E [XRCC1 peptide YAGpSpTDENpTDpSE, phosphorylated on Ser518, Thr519, Thr523 and Ser525]
2 | 0.61 | YAG[pS][pT]DENTDSE [XRCC1 peptide YAGpSpTDENTDSE, phosphorylated on Ser518 and Thr519]
